Source: article PMC6644000 (Cell, 2019)

Biological target: T1, REV1 C-terminal domain (CTD) (mouse, UniProt Q920Q2 1150-1249)
T1 sequence (looked up): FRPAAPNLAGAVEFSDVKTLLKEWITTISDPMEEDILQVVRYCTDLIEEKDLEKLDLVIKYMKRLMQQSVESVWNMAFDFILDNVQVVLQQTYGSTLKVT
Assay: crystal structure

- binding result: binds
B1: POL κ RIR (REV1-interacting region) peptide (domain or fragment, mouse, UniProt Q9QUG2 564-577, looked up)
chain: KSFFDKKRSERISN
